Patent US20180265572A1 (Bristol-Myers Squibb, published 2018)
Several values for one entry are separate records, joined by “and”; a condition that tells them apart may be missing. Equal values may be shown once.

Columns and labels:
[1] = molecular target: T1, VEGFR2-Fc (R&D Systems) (UniProt P35968 20-764); experiment: SPR (Biacore), VEGFR2-Fc immobilized directly on the chip
T1 construct: Bought reagent; not shown: Fc part of the bought fusion; not described
Description: (§1) Affinity data was also measured from midscale and large scale material, for the pegylated version of the tandem construct 385A08-Fn-V2B-cys (SEQ ID NO: 9, with and without his tag). The specific materials and methods for these calculations are described below.
(§2) An alternative method is to capture the IGF—IR-Fc on Protein A. This method was used for calculating the affinity and kinetics of certain versions of the construct 385A08-Fn-V2B-cys (both pegylated and non-pegylated and with or without his tag) from midscale and large scale materials. Specifically, IGF—IR-Fc was captured on Protein A immobilized on a Biacore CM5 sensor chip by amine coupling. VEGFR2-Fc was immobilized directly on a CM5 chip by amine coupling. The affinity and kinetic analysis involved the capture of IGF—IR-Fc on Protein A followed by injection of the tandem adnectin in solution over IGF—IR-Fc and VEGFR2-Fc. The analytical surface was regenerated between samples with glycine pH 1.5. Sensorgrams were obtained at each concentration and were evaluated using Biacore T100 evaluation software to determine the rate constants kₐ (kₒₙ) and kd (koff).
The functionality of the V2B domain was assessed by evaluating a concentration series of the midscale and large scale purification of the tandem construct 385A08-Fn-V2B (pegylated, and non-pegylated versions, his-tag and non-his-tag versions) vs. VEGFR2-Fc that was directly immobilized on a CM5 chip surface (GE, Piscataway, N.J.). VEGFR2-Fc (R&D Systems, MN) was diluted to 12 ug/mL in 50 mM Acetate pH 5.0 for an immobilization level of ˜1300 RU. Varying concentrations of 385A08-Fn-V2B in the solution phase were monitored for association (2 minutes) and dissociation (10 minutes) kinetics at a flow rate of 50 uL/min. Two 30 second injections of 50 mM glycine pH 1.7 were used to regenerate the surface.

[2] = molecular target: VEGFR-2 in nude mice (in vivo) (UniProt P35918 20-1345, limits assumed); experiment: cell-based or functional assay
[3] = molecular target: VEGFR-2 in cynomolgus monkeys (in vivo); experiment: cell-based or functional assay
[4] = molecular target: T2, human IGF-IR-Fc fusion (human, UniProt P08069 31-932); experiment: SPR (Biacore), IGF1R-Fc captured on Protein A
T2 construct: range 1-932; If it counts on the precursor, it includes the signal peptide; also called IGF1R-Fc; not shown: hinge and constant regions of human IgG
Description: as §1, §2

[5] = molecular target: VEGFR2 fusion protein on Ba/F3 cells (extracellular domain of hVEGFR2 and intracellular domain of hEpoR) (human, UniProt P35968 20-764; P19235 274-508, limits assumed); experiment: cell-based or functional assay
[6] = molecular target: human IGF-IR on cells (human, UniProt P08069 31-1367); experiment: cell-based or functional assay
[7] = molecular target: T2, human IGF-IR-Fc fusion; experiment: SPR (Biacore), IGF-IR-Fc captured on Protein A/G, HTPP purified binder in solution, n=1, KD approximate
[8] = molecular target: T2, human IGF-IR-Fc fusion; experiment: SPR (Biacore), captured IGF-IR-Fc, midscale material
[9] = molecular target: T1, VEGFR2-Fc (R&D Systems); experiment: SPR (Biacore), immobilized VEGFR2-Fc, midscale purified binder
[10] = molecular target: T2, human IGF-IR-Fc fusion; experiment: SPR (Biacore), captured IGF1R-Fc, midscale purified binder
[11] = molecular target: T1, VEGFR2-Fc (R&D Systems); experiment: SPR (Biacore), immobilised VEGFR2-Fc, midscale material
[12] = molecular target: T3, VEGFR-2 (KDR) on transfected cells (UniProt P35968 20-1356, limits assumed); experiment: competitive blocking assay on 293:KDR cells; competitor 200 nM IRDye 800CW-labelled Peg-V2Bshort
T3 construct: whole, on cells; also called Flk-1
Description: Similarly, the pegylated, his-tagged construct 385A08-Fn-V2B-cys was able to block the interaction of a mono-specific ¹⁰Fn3-based VEGFR-2 binder (Peg-V2Bshort, SEQ ID NO: 28) with VEGFR-2 present on 293:KDR cells. […] In particular, in a Ba/F3 assay (described below), the IC₅₀ for the monomeric, non-pegylated VEGFR2 binder V2Bshort (SEQ ID NO: 28) is approximately 0.1-3 nM whereas the IC₅₀ for the monomeric, non-pegylated VEGFR2 binder having SEQ ID NO: 44 (e.g., with an N-terminal extension) is approximately 8-13 nM. […] Both the R⁺ and 293:KDR cell based competitive blocking assays are described in detail in the materials and methods section below.
293:KDR (Sibtech, Brookfield, Conn.) were plated in 96 well plates at a concentration of 25,000 cells per well in DMEM (Invitrogen, Carlsbad, Calif.) containing 10% fetal bovine serum (Hyclone, Logan, Utah). The following day, cells were washed twice in serum free DMEM containing 0.1% BSA (Invitrogen, Carlsbad, Calif.). After the washes, the cells were incubated at 4° C. for 10 minutes in binding buffer (serum free DMEM+0.1% BSA) containing increasing concentrations of VEGFR-2 antagonists or controls. Typical controls included the mono-specific ¹⁰Fn3-based VEGFR2 binder (Peg-V2Bshort, SEQ ID NO: 28) (positive control) or the mono-specific ¹⁰Fn3-based IGF-IR binder (AT580-PEG40, SEQ ID NO: 27) (negative control). […]

B1: pegylated, non-his-tag version of 385A08-Fn-V2B-cys (designed binder)
chain: MGVSDVPRDLEVVAATPTSLLISWSARLKVARYYRITYGETGGNSPVQEFTVPKNVYTATISGLKPGVDYTITVYAVTRFRDYQPISINYRTEIDKPSTSTSTVSDVPRDLEVVAATPTSLLISWRHPHFPTRYYRITYGETGGNSPVQEFTVPLQPPTATISGLKPGVDYTITVYAVTDGRNGRLLSIPISINYRTEIDKPCQ
modifications: PEG on the single cysteine at position 203
notes: also called 385A08-Fn-V2B-cys (pegylated, no his-tag); 385A08-Fn-V2B-Cys (non-his tagged)
[1]
  Kd: 17.2 nM and 5.8 nM
  koff: 0.000115 s⁻¹ and 7.49e-05 s⁻¹
  kon: 6670 M⁻¹ s⁻¹ and 13000 M⁻¹ s⁻¹
[2]
  plasma IC50, indirect-response PD model, nude mice bearing the A673 tumor: 7000 nM
[3]
  plasma IC50 (grand mean), PK/PD model, monkeys: 159 nM
[4]
  Kd: 0.982 nM and 1.04 nM
  koff: 0.00027 s⁻¹ and 0.000253 s⁻¹
  kon: 275000 M⁻¹ s⁻¹ and 244000 M⁻¹ s⁻¹

B2: 385A08-Fn-V2B-Cys (designed binder)
single chain: MGVSDVPRDLEVVAATPTSLLISWSARLKVARYYRITYGETGGNSPVQEFTVPKNVYTATISGLKPGVDYTITVYAVTRFRDYQPISINYRTEIDKPSTSTSTVSDVPRDLEVVAATPTSLLISWRHPHFPTRYYRITYGETGGNSPVQEFTVPLQPPTATISGLKPGVDYTITVYAVTDGRNGRLLSIPISINYRTEIDKPCQHHHHHH
[5]
  IC50, inhibition of VEGF-A dependent proliferation of Ba/F3 cells: 1.3 nM
[6]
  IC50, inhibition of proliferation of Rh41 cells (n=1): 33 nM

B3: 385A08-GS5-V2B (designed binder)
single chain: MGVSDVPRDLEVVAATPTSLLISWSARLKVARYYRITYGETGGNSPVQEFTVPKNVYTATISGLKPGVDYTITVYAVTRFRDYQPISINYRTEIDKGSGSGSGSGSVSDVPRDLEVVAATPTSLLISWRHPHFPTRYYRITYGETGGNSPVQEFTVPLQPPTATISGLKPGVDYTITVYAVTDGRNGRLLSIPISINYRTEIDKPSQHHHHHH
notes: also called 385A08-GS5-V2B (Ser tail)
[7]
  Kd: ~0.3 nM
[5]
  IC50, inhibition of VEGF-A dependent proliferation of Ba/F3 cells: 1 nM
[6]
  IC50, inhibition of proliferation of Rh41 cells (n=1): 40 nM

B4: 385A08-GS10 (SEQ ID NO: 22)-V2B, his-tagged (designed binder)
chain: MGVSDVPRDLEVVAATPTSLLISWSARLKVARYYRITYGETGGNSPVQEFTVPKNVYTATISGLKPGVDYTITVYAVTRFRDYQPISINYRTEIDKGSGSGSGSGSGSGSGSGSGSVSDVPRDLEVVAATPTSLLISWRHPHFPTRYYRITYGETGGNSPVQEFTVPLQPPTATISGLKPGVDYTITVYAVTDGRNGRLLSIPISINYRTEIDKPSQHHHHHH
notes: also called 385A08-GS10-V2B; 385A08-GS10-V2B (Ser tail)
[8]
  Kd: 0.04 nM
[7]
  Kd: ~0.3 nM
[9]
  koff: 0.000193 s⁻¹
  kon: 414000 M⁻¹ s⁻¹
[10]
  koff: 0.000308 s⁻¹
  kon: 7.72e+06 M⁻¹ s⁻¹
[5]
  IC50, inhibition of VEGF-A dependent proliferation of Ba/F3 cells: 1.2 nM
[6]
  IC50, inhibition of proliferation of Rh41 cells (n=1): 27 nM
[11]
  Kd: 0.5 nM

B5: V2B-Fn-385A08-Cys (designed binder)
single chain: MGVSDVPRDLEVVAATPTSLLISWRHPHFPTRYYRITYGETGGNSPVQEFTVPLQPPTATISGLKPGVDYTITVYAVTDGRNGRLLSIPISINYRTEIDKPSTSTSTVSDVPRDLEVVAATPTSLLISWSARLKVARYYRITYGETGGNSPVQEFTVPKNVYTATISGLKPGVDYTITVYAVTRFRDYQPISINYRTEIDKPCQHHHHHH
[5]
  IC50, inhibition of VEGF-A dependent proliferation of Ba/F3 cells: 0.8 nM
[6]
  IC50, inhibition of proliferation of Rh41 cells (n=1): 6 nM

B6: Peg-V2Bshort (designed binder)
chain: GEVVAATPTSLLISWRHPHFPTRYYRITYGETGGNSPVQEFTVPLQPPTATISGLKPGVDYTITVYAVTDGRNGRLLSIPISINYRTEIDKPCQ
modifications: pegylated at position 93 (single cysteine); the tracer form is labelled with IRDye 800CW
[12]
  IC50: ~20 nM
[5]
  IC50, inhibition of VEGF-A dependent proliferation of Ba/F3 cells: 10 nM
[6]
  IC50, inhibition of proliferation of Rh41 cells (n=1): > 50 nM

B7: AT580-PEG20-AT580 (designed binder)
chain: MGVSDVPRDLEVVAATPTSLLISWSARLKVARYYRITYGETGGNSPVQEFTVPKNVYTATISGLKPGVDYTITVYAVTRFRDYQPISINYRTEIDKPCQ
modifications: the two chains are joined by a 20 kDa PEG at position 98 (cysteine) of each; labelled with IRDye 800CW in the competition assay
[6]
  IC50, inhibition of proliferation of Rh41 cells (n=1): 0.07 nM

B8: V2B-Fn-385A08 (designed binder)
single chain: MGVSDVPRDLEVVAATPTSLLISWRHPHFPTRYYRITYGETGGNSPVQEFTVPLQPPTATISGLKPGVDYTITVYAVTDGRNGRLLSIPISINYRTEIDKPSTSTSTVSDVPRDLEVVAATPTSLLISWSARLKVARYYRITYGETGGNSPVQEFTVPKNVYTATISGLKPGVDYTITVYAVTRFRDYQPISINYRTEIDKPSQHHHHHH
notes: also called V2B-Fn-385A08 (Ser tail)
[7]
  Kd: ~0.2 nM
[5]
  IC50, inhibition of VEGF-A dependent proliferation of Ba/F3 cells: 2.2 nM

B9: V2B-GS5-385A08 (designed binder)
single chain: MGVSDVPRDLEVVAATPTSLLISWRHPHFPTRYYRITYGETGGNSPVQEFTVPLQPPTATISGLKPGVDYTITVYAVTDGRNGRLLSIPISINYRTEIDKGSGSGSGSGSVSDVPRDLEVVAATPTSLLISWSARLKVARYYRITYGETGGNSPVQEFTVPKNVYTATISGLKPGVDYTITVYAVTRFRDYQPISINYRTEIDKPSQHHHHHH
notes: also called V2B-GS5-385A08 (Ser tail)
[7]
  Kd: ~0.2 nM
[5]
  IC50, inhibition of VEGF-A dependent proliferation of Ba/F3 cells: 2 nM

B10: V2B-GS10 (SEQ ID NO: 22)-385A08, his-tagged (designed binder)
chain: MGVSDVPRDLEVVAATPTSLLISWRHPHFPTRYYRITYGETGGNSPVQEFTVPLQPPTATISGLKPGVDYTITVYAVTDGRNGRLLSIPISINYRTEIDKGSGSGSGSGSGSGSGSGSGSVSDVPRDLEVVAATPTSLLISWSARLKVARYYRITYGETGGNSPVQEFTVPKNVYTATISGLKPGVDYTITVYAVTRFRDYQPISINYRTEIDKPSQHHHHHH
notes: also called V2B-GS10-385A08; V2B-GS10-385A08 (Ser tail)
[8]
  Kd: 0.05 nM
[7]
  Kd: ~0.2 nM
[9]
  koff: 0.000222 s⁻¹
  kon: 382000 M⁻¹ s⁻¹
[10]
  koff: 0.000204 s⁻¹
  kon: 4.18e+06 M⁻¹ s⁻¹
[5]
  IC50, inhibition of VEGF-A dependent proliferation of Ba/F3 cells: 1.9 nM
[11]
  Kd: 0.6 nM
